Measured values as given in patent US10864252B2, “Anti-SSX-2 T cell receptors and related materials and methods of use” (The United States of America, as represented by the …, priority 2010, dated 2020).

Columns and labels:
624 mel = test: IFN-γ release, co-culture with 624 melanoma; type: cell-based; settings: co-cultured with 624 (Melanoma)
Source text: (§1) SSX-2 TCR-transduced PBLs were co-cultured with various tumor cell lines. […] FIGS. 4A and 4B, FIG. 11, and Tables 3 and 4 show additional results of PBLs from human donors that were transduced with the SSX-2 TCR of Example 2 when these PBLs were co-cultured with various tumor cells. PBLs that were untransduced (UT) or transduced with a vector comprising SEQ ID NO: 27 (SSX-2 TCR), SEQ ID NO: 29 (codon-optimized SSX-2 TCR), or SEQ ID NO: 30 (codon-optimized SSX-2 TCR including mouse constant region) were co-cultured with various tumor cell lines. Tables 5 and 6 show the resulting interferon-γ levels (pg/ml) measured with respect to PBL from two different donors.

T567A = test: IFN-γ release, co-culture with T567A melanoma; type: cell-based; settings: co-cultured with T567A (Melanoma)
Source text: (§2) SSX-2 TCR-transduced PBLs were co-cultured with various tumor cell lines. […] FIGS. 4A and 4B, FIG. 11, and Tables 3 and 4 show additional results of PBLs from human donors that were transduced with the SSX-2 TCR of Example 2 when these PBLs were co-cultured with various tumor cells.

SKOV3 Ovarian = test: IFN-γ release, co-culture with SKOV3 ovarian; type: cell-based; settings: co-cultured with SKOV3 (Ovarian)
Source text: as §1

SK MEL37 = test: IFN-γ release, co-culture with SK MEL37 melanoma; type: cell-based; settings: co-cultured with SK MEL37 (Melanoma)
Source text: as §1

293-A2 = test: IFN-γ release, co-culture with 293-A2; type: cell-based; settings: co-cultured with 293-A2
Source text: as §1

K562 = test: IFN-γ release, co-culture with K562; type: cell-based; settings: co-cultured with K562
Source text: PBLs that were untransduced (UT) or transduced with a vector comprising SEQ ID NO: 27 (SSX-2 TCR), SEQ ID NO: 29 (codon-optimized SSX-2 TCR), or SEQ ID NO: 30 (codon-optimized SSX-2 TCR including mouse constant region) were co-cultured with various tumor cell lines. Tables 5 and 6 show the resulting interferon-γ levels (pg/ml) measured with respect to PBL from two different donors.

COS-A2 = test: IFN-γ release, TCR-transduced PBL co-cultured with COS-A2; type: cell-based; settings: for IFN-γ: human donor PBL co-cultured with COS-A2; for interferon-γ levels: co-cultured with Cos-A2
Source text: as §1

SSX-2 = test: Tetramer binding of transduced PBL; settings: human donor-derived PBL; CD4 and CD8 cells
SKMEL 23 = test: IFN-γ release, co-culture with SKMEL 23; type: cell-based; settings: co-cultured with SKMEL 23
Source text: as §2

COS-A2-SSX-2 cells = test: Proliferation ([3H]-thymidine) on co-culture with COS-A2-SSX-2 cells; type: cell-based; settings: PBL from Donor 1 or Donor 2; FIGS. 6A, 6B
Description: PBLs from Donor 1 or Donor 2 that were untransduced (UT) or transduced with a vector comprising SEQ ID NO: 27 (SSX-2 TCR), SEQ ID NO: 29 (codon-optimized SSX-2 TCR), or SEQ ID NO: 30 (codon-optimized SSX-2 TCR including mouse constant region) were co-cultured with COS-A2-SSX-2 cells. Proliferation in terms of [^3H]-thymidine incorporation (CPM) was measured and is shown in FIG. 6A (Donor 1) and 6B (Donor 2).

293-A2 SSX2 = test: IFN-γ release, co-culture with 293-A2 SSX2; type: cell-based; settings: co-cultured with 293-A2 SSX2
Source text: as §1

COS-A2-SSX2 cells = test: CD137 (4-1BB) upregulation after co-culture with COS-A2-SSX2 cells; type: cell-based; settings: FACS after co-culture with COS-A2-SSX2 cells
938 mel = test: IFN-γ release, co-culture with 938; type: cell-based; settings: for IFN-γ: co-cultured with 938; for interferon-γ levels: co-cultured with 938 mel
Source text: as §1

COS-A2 SSX2 = test: IFN-γ release, co-culture with COS-A2 SSX2; type: cell-based; settings: co-cultured with COS-A2 SSX2
Source text: as §1

[1] = target: T1, SSX-2: 41-49 (KASEKIFYV) peptide (Homo sapiens, UniProt Q16385); test: IFN-γ release, co-culture with T2 cells pulsed with SSX-2: 41-49 peptide; type: cell-based
T1 construct: host or cells: T2 cells (peptide-pulsed)
Source text: SSX-2 TCR-transduced PBLs were co-cultured with T2 cells from two human donors, where the T2 cells were pulsed with varying concentrations of the SSX-2: 41-49 (KASEKIFYV) peptide. FIGS. 1A and 1B show the resulting interferon-γ levels (pg/ml) measured. […] The differences between FIGS. 1A and 1B may be due to donor variability.
PBLs that were untransduced (UT) or transduced with a vector comprising SEQ ID NO: 27 (SSX-2 TCR), SEQ ID NO: 29 (codon-optimized SSX-2 TCR), or SEQ ID NO: 30 (codon-optimized SSX-2 TCR including mouse constant region) were co-cultured with T2 cells that were pulsed with an SSX-2 were pulsed with varying concentrations of the SSX-2: 41-49 (KASEKIFYV) (SEQ ID NO: 1) peptide.

HEPG2 = test: IFN-γ release, co-culture with HEPG2; type: cell-based; settings: co-cultured with HEPG2
Source text: as §2

[2] = IFN-γ release, transduced PBL without target cells (medium / T cell alone); type: cell-based, human; settings: for IFN-γ: MEDIUM, no target cells; for interferon-γ levels: T cell alone
Source text: as §1

[3] = tested on: SSX2+/HLA-A2+ target cells; test: Proliferation ([3H]-thymidine) on co-culture with tumor cells; type: cell-based; settings: 1300 mel, 624 mel, 888 mel, SK mel 37 or COS-A2-SSX-2 cells; FIGS. 9A-9E
Source text: In another experiment, PBLs transduced as described in this example were co-cultured with 1300 mel cells, 624 mel cells, 888 mel cells, SK mel 37 cells, or COS-A2-SSX-2 cells.

H82 = test: IFN-γ release, co-culture with H82; type: cell-based; settings: co-cultured with H82
Source text: as §2

B1: SSX2-TCR-WT: HLA-A2 restricted anti-SSX-2 TCR alpha and beta chains encoded by SEQ ID NO: 27, tested as transduced human PBLs (protein)
chain: MSLSSLLKVVTASLWLGPGIAQKITQTQPGMFVQEKEAVTLDCTYDTSDPSYGLFWYKQPSSGEMIFLIYQGSYDQQNATEGRYSLNFQKARKSANLVISASQLGDSAMYFCAMTSGFGNEKLTFGTGTRLTIIPNIQNPDPAVYQLRDSKSSDKSVCLFTDFDSQTNVSQSKDSDVYITDKTVLDMRSMDFKSNSAVAWSNKSDFACANAFNNSIIPEDTFFPSPESSCDVKLVEKSFETDTNLNFQNLSVIGFRILLLKVAGFNLLMTLRLWSSRAKRSGSGATNFSLLKQAGDVEENPGPMGPGLLHWMALCLLGTGHGDAMVIQNPRYQVTQFGKPVTLSCSQTLNHNVMYWYQQKSSQAPKLLFHYYDKDFNNEADTPDNFQSRRPNTSFCFLDIRSPGLGDAAMYLCATSRGQGGQPQHFGDGTRLSILEDLNKVFPPEVAVFEPSEAEISHTQKATLVCLATGFFPDHVELSWWVNGKEVHSGVSTDPQPLKEQPALNDSRYCLSSRLRVSATFWQNPRNHFRCQVQFYGLSENDEWTQDRAKPVTQIVSAEAWGRADCGFTSVSYQQGVLSATILYEILLGKATLYAVLVSALVLMAMVKRKDF
IFN-γ (624 mel; Table 3): 26515 pg/mL
IFN-γ (624 mel; Table 4): 21730 pg/mL
IFN-γ (T567A; Table 3): 10280 pg/mL
IFN-γ (T567A; Table 4): 13245 pg/mL
IFN-γ (SKOV3 Ovarian; Table 3): 663 pg/mL
IFN-γ (SKOV3 Ovarian; Table 4): 610 pg/mL
IFN-γ (SK MEL37; Table 3): 10000 pg/mL
IFN-γ (SK MEL37; Table 4): 9720 pg/mL
IFN-γ (293-A2; Table 3): 173 pg/mL
IFN-γ (293-A2; Table 4): 144 pg/mL
interferon-γ levels (293-A2; Table 5 donor): 582 pg/mL
interferon-γ levels (293-A2; Table 6 donor): 1520 pg/mL
interferon-γ levels (K562; Table 5 donor): 1969 pg/mL
interferon-γ levels (K562; Table 6 donor): 1807 pg/mL
IFN-γ (COS-A2; Table 3): 297 pg/mL
IFN-γ (COS-A2; Table 4): 180 pg/mL
interferon-γ levels (COS-A2; Table 5 donor): 2839 pg/mL
interferon-γ levels (COS-A2; Table 6 donor): 460 pg/mL
tetramer binding (SSX-2): tetramer binding
IFN-γ (SKMEL 23; Table 3): 0 pg/mL
IFN-γ (SKMEL 23; Table 4): 0 pg/mL
proliferation ([3H]-thymidine incorporation) (COS-A2-SSX-2 cells): proliferate in response to co-culture with COS-A2-SSX-2 cells
IFN-γ (293-A2 SSX2; Table 3): 33913 pg/mL
IFN-γ (293-A2 SSX2; Table 4): 20595 pg/mL
activation marker CD137 (4-1BB) (COS-A2-SSX2 cells): upregulated
IFN-γ (938 mel; Table 3): 0 pg/mL
IFN-γ (938 mel; Table 4): 0 pg/mL
interferon-γ levels (938 mel; Table 5 donor): 1239 pg/mL
interferon-γ levels (938 mel; Table 6 donor): 1451 pg/mL
IFN-γ (COS-A2 SSX2; Table 3): 36070 pg/mL
IFN-γ (COS-A2 SSX2; Table 4): 56820 pg/mL
recognition of SSX-2: 41-49 peptide (IFN-γ) ([1]; FIG. 10): recognize SSX-2: 41-49 peptide
lowest SSX-2: 41-49 peptide concentration recognized (IFN-γ) ([1]; T2 cells from two human donors pulsed with varying peptide concentrations, FIGS. 1A, 1B): ≤ 0.01 ng/mL
IFN-γ (HEPG2; Table 3): 25 pg/mL
IFN-γ (HEPG2; Table 4): 61 pg/mL
IFN-γ ([2]; Table 3): 0 pg/mL
IFN-γ ([2]; Table 4): 0 pg/mL
interferon-γ levels ([2]; Table 5 donor): 165 pg/mL
interferon-γ levels ([2]; Table 6 donor): 322 pg/mL
proliferation ([3H]-thymidine incorporation) [3]: proliferate in response to co-culture with SSX2+/HLA-A2+ target cells
IFN-γ (H82; Table 3): 141 pg/mL
IFN-γ (H82; Table 4): 100 pg/mL
